# Measured values published in patent publication US7387779B2, “Anti-angiogenic proteins and fragments and methods of use thereof” (Beth Israel Deaconess Medical Center, priority 1998, dated 2008).
# B1: Tumstatin-44-131: residues 44 to 131 of full-length Tumstatin (SEQ ID NO:33) (protein)
# chain: FSFLFVQGNQRAHGQDLGTLGSCLQRFTTMPFLFCNVNDVCNFASRNDYSYWLSTPALMPMNMAPITGRALEPYISRCTVCEGPAIAI
# modifications: Tumstatin-45-132 (amino acids 45-132 of SEQ ID NO10)
# B2: Tum-1: residues 54 to 244 of Tumstatin, lacking the N-terminal 53 amino acids (SEQ ID NO:22) (protein)
# chain: QRAHGQDLGTLGSCLQRFTTMPFLFCNVNDVCNFASRNDYSYWLSTPALMPMNMAPITGRALEPYISRCTVCEGPAIAIAVHSQTTDIPPCPHGWISLWKGFSFIMFTSAGSEGTGQALASPGSCLEEFRASPFLECHGRGTCNYYSNSYSFWLASLNPERMFRKPIPSTVKAGELEKIISRCQVCMKKRH
# modifications: Tum-1 (Tumstatin N-53) (amino acids 54-244 of SEQ ID NO10)
# B3: endostatin: tumor associated angiogenesis inhibitor used as comparator (protein, UniProt P39060 1572-1754, looked up)
# Endostatin: HSHRDFQPVLHLVALNSPLSGGMRGIRGADFQCFQQARAVGLAGTFRAFLSSRLQDLYSIVRRADRAAVPIVNLKDELLFPSWEALFSGSEGPLKPGARIFSFDGKDVLRHPTWPQKSVWHGSDPNGRRLTESYCETWRTEAPSATGQASSLLGGRLLGQSAASCHHAYIVLCIENSFMTASK
# modifications: Endostatin
# B4: Can-1: N-terminal 114 amino acids of full-length Canstatin (protein, listed as Homo sapiens)
# chain: VSIGYLLVKHSQTDQEPMCPVGMNKLWSGYSLLYFEGQEKAHNQDLGLAGSCLARFSTMPFLYCNPGDVCYYASRNDKSYWLSTTAPLPMMPVAEDEIKPYISRCSVCEAPAIA
# B5: Tumstatin: NC1 domain of the α3 chain of type IV collagen, residues 1-244 (SEQ ID NO:10) (protein, listed as Homo sapiens)
# chain: GLKGKRGDSGSPATWTTRGFVFTRHSQTTAIPSCPEGTVPLYSGFSFLFVQGNQRAHGQDLGTLGSCLQRFTTMPFLFCNVNDVCNFASRNDYSYWLSTPALMPMNMAPITGRALEPYISRCTVCEGPAIAIAVHSQTTDIPPCPHGWISLWKGFSFIMFTSAGSEGTGQALASPGSCLEEFRASPFLECHGRGTCNYYSNSYSFWLASLNPERMFRKPIPSTVKAGELEKIISRCQVCMKKRH
# B6: Canstatin: NC1 domain of the α2 chain of Type IV collagen (SEQ ID NO:6) (protein, listed as Homo sapiens)
# chain: VSIGYLLVKHSQTDQEPMCPVGMNKLWSGYSLLYFEGQEKAHNQDLGLAGSCLARFSTMPFLYCNPGDVCYYASRNDKSYWLSTTAPLPMMPVAEDEIKPYISRCSVCEAPAIAIAVHSQDVSIPHCPAGWRSLWIGYSFLMHTAAGDEGGGQSLVSPGSCLEDFRATPFIECNGGRGTCHYYANKYSFWLTTIPEQSFQGSPSADTLKAGLIRTHISRCQVCMKNL
# System: new blood vessels in Matrigel plugs
# Assay: In vivo Matrigel plug assay
# Set-up: species or system C57/BL6 mice
# Settings: for inhibition of neovascularization / average number of vessels per high power field: Tumstatin-N53 5 μg/ml, T1 and T3 peptide 10 μg/ml; for average number of vessels per high power field: control 8.81±0.35; for reduction of new blood vessels: 6 days, 5 μg/ml, relative to PBS control; for reduction in the number of blood vessels / number of blood vessels per plug: 14 days; for number of blood vessels per plug: 2 or 20 μg/ml insoluble protein, 50 ng/ml VEGF, vs PBS
# Procedure: The matrigel assay was also conducted in vivo in C57/BL6 mice. Matrigel was thawed overnight at 4° C. It was then mixed with 20 U/ml of heparin (Pierce Chemical Co., Rockford, Ill., USA), 150 ng/ml of bFGF (R&D Systems, Minneapolis, Minn., USA), and either 1 μg/ml of Arresten or 10 μg/ml of endostatin. The matrigel mixture was injected subcutaneously using a 21 g needle. Control groups received the same mixture, but with no angiogenic inhibitor. After 14 days, mice were sacrificed and the matrigel plugs removed. The matrigel plugs were fixed in 4% paraformaldehyde in PBS for 4 hours at room temperature, then switched to PBS for 24 hours. The plugs were embedded in paraffin, sectioned, and H&E stained. Sections were examined by light microscopy and the number of blood vessels from 10 high-power fields were counted and averaged.
# To evaluate the in vivo effect of Tumstatin on the formation of new capillaries, a Matrigel plug assay was performed (Passaniti, A. et al., 1992, Lab. Invest. 67:519-29). Five- to six-week-old male C57/BL6 mice (Jackson Laboratories, Bar Harbor, Me., USA) were obtained. Matrigel (Collaborative Biomedical Prods.) was thawed overnight at 4° C. Before injection into C57/BL6 mice, it was mixed with 20 U/ml of heparin (Pierce Chemical Co., Rockford, Ill., USA), 150 ng/ml of bFGF (R&D Sys., Minneapolis, Minn., USA), and […] of Tumstatin. Control groups received no angiogenic inhibitor. The Matrigel mixture was injected sub-cutaneously using a 21 gauge needle. After 14 days, mice were sacrificed and the Matrigel plugs were removed. Matrigel plugs were fixed in 4% para-formaldehyde (in PBS) for 4 hours at room temperature, then switched to PBS for 24 hours. The plugs were embedded in paraffin, sectioned, and H & E stained. Sections were examined by light microscopy and the number of blood vessels from 10 high power fields were counted and averaged. All sections were coded and observed by a pathologist who was unaware of the study protocols.
# Anti-angiogenic activity was measured by the in vivo Matrigel plug assay, in which 0.5 ml of Matrigel containing either 2 μg/ml or 20 μg/ml insoluble protein, 50 ng/ml VEGF, and 20 U/ml heparin was injected simultaneously into both flanks of C57/1BL6 mice. The plugs remained in the mice for 14 days, when the mice were sacrificed and the plugs resected and fixed. The plugs were embedded, sectioned and H&E stained. Samples were blinded and the blood vessels quantitated. No difference in the number of blood vessels was found between the two concentrations of protein, so all six counts were averaged and plotted.
# To evaluate the in vivo effect of Tumstatin-44-131 of the formation of new capillaries, a Matrigel plug assay was performed. After 6 days of treatment, the number of new blood formed was reduced 91% upon treatment with 5 μg/ml E. Coli-expressed Tumstatin-44-131, relative to the PBS-treated control. Tum-1, which lacks the N-terminal 53 amino acids of full-length Tumstatin, was also tested, and reduced neovascularization by 95%. The average (over 3-4 Matrigel plugs) number of vessels was 0.47.+−.0.16 for Tum-1-treated plugs, 0.80.+−.0.16 for Tumstatin-44-131-treated plugs, and 8.81.+−.0.35 for PBS-treated controls.
# To evaluate the in vivo effect of T3 on the formation of new capillaries, a matrigel plug assay was performed with Tumstatin-N53 (5 μg/ml), T1 and T3 peptide (10 μg/ml). The number of blood vessels from 4-7 high power fields were counted and averaged. The average number of vessels per high power field after treatment with Tumstatin-N53 was 0.47±0.16, 7.41±0.54 for T1 peptide, and 0.33±0.16 for T3 peptide. Control treatment produced 8.81±0.35 vessels per field, on average.
molecule,measurement,setting,value
LQRFTTMPFLFCNVNDVCNF [T3],inhibition of neovascularization,,96%
same,average number of vessels per high power field,,0.33±0.16
GLKGKRGDSGSPATWTTRGF [T1],inhibition of neovascularization,,no significant reduction
same,average number of vessels per high power field,,7.41±0.54
B1,reduction of new blood vessels,,91%
B2,reduction of new blood vessels,,95%
same,inhibition of neovascularization,,95%
same,average number of vessels per high power field,,0.47±0.16
B3,reduction in the number of blood vessels,"bFGF, 1 μg/ml Arresten, 10 μg/ml endostatin",50%
B4,number of blood vessels per plug,,significantly fewer blood vessels
B5,number of vessels per high power field,"1 mg/ml Tumstatin, control 7.50±2.17",2.25±1.32
same,reduction in the number of blood vessels,"bFGF and heparin, 1 mg/ml E. Coli-produced Tumstatin",67%
B6,number of blood vessels per plug,,significantly fewer blood vessels
